From US20060188503A1 (Genentech, published 2006)

Columns and labels:
[1] = biological target: KDR receptor on human umbilical vein endothelial cells (HUVEC) (human, UniProt P35968 20-1356); assay: cell-based or functional assay
[2] = biological target: T1, Flt-IgG (a chimeric Flt-human Fc molecule) (human, UniProt P17948 27-758, limits assumed); assay: competition ELISA: displacement of biotinylated native VEGF from Flt-IgG
T1 construct: not shown: human IgG Fc
Protocol: The wells were filled with 100 μl of a solution containing Flt-IgG (a chimeric Flt-human Fc molecule) at 50 ng/ml in assay buffer (0.5% BSA, 0.05% Tween 20 in PBS). The wells were incubated at room temperature for 1 hour and then washed three times in wash buffer (0.05% Tween 20 in PBS).
Aliquots of the mixture (100 μl) were added to the precoated microtiter wells and the plate was incubated for 2 hours at room temperature. […] The wells were then incubated with […] (0.2 g/liter, Kirkegaard & Perry Laboratories, Gaithersburg, Md.) for about 10 minutes at room temperature. Absorbance was read at 450 nm on a Vmax plate reader (Molecular Devices, Menlo Park, Calif.).
(§1) Titration curves were fit with a four-parameter nonlinear regression curve-fitting program (KaleidaGraph, Synergy Software, Reading, Pa.).

[3] = biological target: KDR receptor with a gD tag at the N-terminus, on CHO cells (UniProt P35968 20-1356); assay: cell-based or functional assay
[4] = biological target: T2, KDR (1-3) (UniProt P35968 20-327, limits assumed); assay: competition ELISA: displacement of biotinylated native VEGF (8-109) from KDR (1-3)
T2 construct: domain: KDR (1-3); Soluble KDR (1-3) at 1 ug/ml, captured on anti-KDR antibody MAKD5; also called KDR (1-3) monomer
T2 sequence (P35968 20-327 limits assumed): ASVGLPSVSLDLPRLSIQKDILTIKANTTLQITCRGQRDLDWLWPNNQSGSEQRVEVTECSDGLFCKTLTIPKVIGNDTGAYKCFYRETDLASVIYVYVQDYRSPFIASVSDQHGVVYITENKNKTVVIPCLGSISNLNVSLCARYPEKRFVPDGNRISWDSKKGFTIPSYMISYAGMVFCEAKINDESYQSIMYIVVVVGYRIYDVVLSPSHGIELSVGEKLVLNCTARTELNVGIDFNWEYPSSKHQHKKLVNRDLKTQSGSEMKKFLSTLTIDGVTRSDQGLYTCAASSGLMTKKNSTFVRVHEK
Protocol: (§2) Aliquots of this mixture (100 μl) were added to the precoated microtiter wells and the plate was incubated for 1 hour at room temperature.
(§3) The wells were then incubated with 3,3′,5,5′-tetramethyl benzidine (0.2 gram/liter; Kirkegaard & Perry Laboratories, Gaithersburg, Md.) for about 10 minutes at room temperature. Absorbance was read at 450 nm on a Vmax plate reader (Molecular Devices, Menlo Park, Calif.).
as §1

[5] = biological target: KDR Receptor (RIA of Example 11) (UniProt P35968 20-764, limits assumed); assay: RIA, essentially as in Muller et al. 1997
Sequence of KDR Receptor (RIA of Example 11) (P35968 20-764 limits assumed): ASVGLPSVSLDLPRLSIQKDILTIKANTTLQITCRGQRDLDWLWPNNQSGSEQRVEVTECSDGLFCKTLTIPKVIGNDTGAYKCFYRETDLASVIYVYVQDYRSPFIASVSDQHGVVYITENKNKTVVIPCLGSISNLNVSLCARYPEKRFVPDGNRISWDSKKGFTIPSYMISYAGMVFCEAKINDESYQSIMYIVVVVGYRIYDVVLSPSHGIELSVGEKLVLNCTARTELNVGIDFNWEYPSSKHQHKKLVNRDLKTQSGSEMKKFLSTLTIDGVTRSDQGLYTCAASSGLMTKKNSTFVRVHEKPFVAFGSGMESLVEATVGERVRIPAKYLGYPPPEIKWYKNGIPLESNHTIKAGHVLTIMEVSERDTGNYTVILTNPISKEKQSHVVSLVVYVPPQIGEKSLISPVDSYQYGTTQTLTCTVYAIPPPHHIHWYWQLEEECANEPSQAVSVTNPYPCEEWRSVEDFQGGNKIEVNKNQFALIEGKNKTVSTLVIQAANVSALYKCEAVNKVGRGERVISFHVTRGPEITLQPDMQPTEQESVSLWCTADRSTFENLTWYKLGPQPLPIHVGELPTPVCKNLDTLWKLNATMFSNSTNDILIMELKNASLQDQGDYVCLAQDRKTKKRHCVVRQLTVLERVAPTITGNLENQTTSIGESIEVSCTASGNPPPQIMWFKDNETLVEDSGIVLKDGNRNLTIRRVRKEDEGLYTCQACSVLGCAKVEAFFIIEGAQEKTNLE

[6] = biological target: FLT-1 Receptor (RIA of Example 11) (UniProt P17948 27-758, limits assumed); assay: RIA, essentially as in Muller et al. 1997
Sequence of FLT-1 Receptor (RIA of Example 11) (P17948 27-758 limits assumed): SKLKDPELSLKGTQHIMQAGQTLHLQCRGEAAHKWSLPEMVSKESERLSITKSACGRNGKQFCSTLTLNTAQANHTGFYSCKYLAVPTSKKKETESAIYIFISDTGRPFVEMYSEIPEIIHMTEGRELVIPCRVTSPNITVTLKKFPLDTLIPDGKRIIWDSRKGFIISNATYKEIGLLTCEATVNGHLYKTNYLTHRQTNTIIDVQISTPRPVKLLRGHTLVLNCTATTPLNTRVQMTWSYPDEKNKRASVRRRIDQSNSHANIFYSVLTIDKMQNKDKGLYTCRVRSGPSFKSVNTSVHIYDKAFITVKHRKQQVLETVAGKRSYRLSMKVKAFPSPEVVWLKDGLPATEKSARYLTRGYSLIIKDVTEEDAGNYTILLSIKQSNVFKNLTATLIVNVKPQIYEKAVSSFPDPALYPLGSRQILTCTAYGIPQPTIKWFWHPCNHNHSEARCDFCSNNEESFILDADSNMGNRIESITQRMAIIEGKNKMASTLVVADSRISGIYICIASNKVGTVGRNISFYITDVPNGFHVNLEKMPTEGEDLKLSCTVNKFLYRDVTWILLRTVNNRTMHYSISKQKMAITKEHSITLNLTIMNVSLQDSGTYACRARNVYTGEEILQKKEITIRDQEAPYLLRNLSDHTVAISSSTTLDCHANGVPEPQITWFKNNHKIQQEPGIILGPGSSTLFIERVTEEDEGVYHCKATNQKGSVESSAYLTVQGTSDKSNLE

[7] = biological target: T2, KDR (1-3); assay: competition ELISA: displacement of biotinylated native VEGF (8-109) from KDR (1-3); concentration at midpoint absorbance
Protocol: as §2, §3, §1

[8] = biological target: T2, KDR (1-3); assay: competition ELISA (Example 7): serially diluted unlabelled native VEGF (8-109) incubated with biotinylated native VEGF (8-109) (84 nM) and KDR (1-3) (1 ug/ml), complex captured on anti-KDR antibody MAKD5, detected with peroxidase-streptavidin, OD 450
Protocol: as §2, §3, §1

T1 sequence (P17948 27-758 limits assumed, change not shown): as the sequence (P17948 27-758 limits assumed) above
Sequence of KDR receptor on human umbilical vein endothelial cells (HUVEC) (P35968 20-1356): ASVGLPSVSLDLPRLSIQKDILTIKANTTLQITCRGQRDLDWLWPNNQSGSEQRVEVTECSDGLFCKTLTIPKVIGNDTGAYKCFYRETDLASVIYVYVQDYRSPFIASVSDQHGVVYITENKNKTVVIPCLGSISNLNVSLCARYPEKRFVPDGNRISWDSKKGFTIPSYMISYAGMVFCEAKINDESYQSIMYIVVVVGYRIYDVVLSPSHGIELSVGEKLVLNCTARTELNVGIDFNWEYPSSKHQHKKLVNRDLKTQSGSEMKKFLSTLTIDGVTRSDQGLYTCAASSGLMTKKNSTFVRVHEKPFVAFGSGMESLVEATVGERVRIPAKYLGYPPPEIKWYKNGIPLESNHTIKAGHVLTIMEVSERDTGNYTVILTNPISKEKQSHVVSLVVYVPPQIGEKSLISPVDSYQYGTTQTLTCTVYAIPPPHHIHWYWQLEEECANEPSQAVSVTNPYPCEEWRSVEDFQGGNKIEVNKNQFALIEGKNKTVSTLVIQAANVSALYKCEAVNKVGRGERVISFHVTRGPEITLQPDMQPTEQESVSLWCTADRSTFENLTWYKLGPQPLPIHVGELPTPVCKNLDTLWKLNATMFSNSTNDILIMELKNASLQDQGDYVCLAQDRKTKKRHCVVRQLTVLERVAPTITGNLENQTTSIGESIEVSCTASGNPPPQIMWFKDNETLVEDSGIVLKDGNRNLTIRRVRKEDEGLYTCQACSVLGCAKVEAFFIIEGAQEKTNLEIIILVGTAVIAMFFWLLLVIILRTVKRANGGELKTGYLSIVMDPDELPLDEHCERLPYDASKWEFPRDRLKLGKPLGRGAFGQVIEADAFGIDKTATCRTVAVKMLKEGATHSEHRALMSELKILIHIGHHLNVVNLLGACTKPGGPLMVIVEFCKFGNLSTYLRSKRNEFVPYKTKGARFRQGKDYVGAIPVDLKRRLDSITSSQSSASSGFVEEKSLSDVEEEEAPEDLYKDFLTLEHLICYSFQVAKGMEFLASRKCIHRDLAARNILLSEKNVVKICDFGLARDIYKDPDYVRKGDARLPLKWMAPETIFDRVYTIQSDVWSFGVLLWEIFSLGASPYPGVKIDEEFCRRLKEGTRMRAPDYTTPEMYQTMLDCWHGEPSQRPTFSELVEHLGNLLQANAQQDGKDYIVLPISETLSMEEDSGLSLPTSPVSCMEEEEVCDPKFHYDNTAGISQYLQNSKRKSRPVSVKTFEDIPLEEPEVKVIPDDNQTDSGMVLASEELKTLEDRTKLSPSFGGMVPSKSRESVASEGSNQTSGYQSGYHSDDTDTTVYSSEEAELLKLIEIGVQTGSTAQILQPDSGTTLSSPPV

Binder | relative binding affinity (ratio to native VEGF (8-109)) [4] [fold] | also measured
LK-VRB-1s* (ligand) APMAEGGGQNHHEVVKFEDVLRRSSCHPIETLVDIFQEYPDEIEYIFKPSCVPLMRCGGCCNDEGLECVPTEESNITMQIMRIKPHQGQHIGEMSFLQHNKCECRPKKD | 1 | Endothelial Cell Proliferation Activity (HUVEC), ratio to native VEGF (8-109) [1]: 0.2 fold; relative binding affinity (ratio to native VEGF (8-109)) [2]: 6000 fold; Phosphorylation-Inducing Activity (KIRA), ratio to native VEGF (8-109) [3]: 0.5 fold; relative binding affinity (ratio to native VEGF 165) [5]: 20 fold; relative binding affinity (ratio to native VEGF 165) [6]: 14000 fold
LK-VRB-19s (ligand) APMAEGGGQNHHEVVKFEDVYRRSSCHPIETLVDIFQEYPDEIEYIFKPSCVPLMRCGGCCNSEMRECVPTEESNITMQIMRIKPHQGQHIGEMSFLQHNKCECRPKKD | 7 | IC50 [7]: 7 nM
LK-VRB-11s (ligand) APMAEGGGQNHHEVVKFEDVLQRSYCHPIETLVDIFQEYPDEIEYIFKPSCVPLMRCGGCCNSEMRECVPTEESNITMQIMRIKPHQGQHIGEMSFLQHNKCECRPKKD | 2 | 
LK-VRB-4s (ligand, the codon printed for Y25I is CAC (His)) APMAEGGGQNHHEVVKIEDVFERSICHPIETLVDIFQEYPDEIEYIFKPSCVPLMRCGGCCNDEGLECVPTEESNITMQIMRIKPHQGQHIGEMSFLQHNKCECRPKKD | 1 | relative binding affinity (ratio to native VEGF (8-109)) [2]: 200 fold; Phosphorylation-Inducing Activity (KIRA), ratio to native VEGF (8-109) [3]: 0.5 fold
LK-VRB-15s (ligand) APMAEGGGQNHHEVVKFMDVLQRSSCHPIETLVDIFQEYPDEIEYIFKPSCVPLMRCGGCCNSEMRECVPTEESNITMQIMRIKPHQGQHIGEMSFLQHNKCECRPKKD | 2 | 
LK-VRB-7s* (ligand) APMAEGGGQNHHEVVKFEDVYQRSYCHPIETLVDIFQEYPDEIEYIFKPSCVPLMRCGGCCNSEMRECVPTEESNITMQIMRIKPHQGQHIGEMSFLQHNKCECRPKKD | 1 | Endothelial Cell Proliferation Activity (HUVEC), ratio to native VEGF (8-109) [1]: 1 fold
LK-VRB-14s (ligand) APMAEGGGQNHHEVVKFMDVLRRSYCHPIETLVDIFQEYPDEIEYIFKPSCVPLMRCGGCCNSEMRECVPTEESNITMQIMRIKPHQGQHIGEMSFLQHNKCECRPKKD | 0.5 | 
LK-VRB-9s (ligand) APMAEGGGQNHHEVVKFMDVYRRSYCHPIETLVDIFQEYPDEIEYIFKPSCVPLMRCGGCCNSEMRECVPTEESNITMQIMRIKPHQGQHIGEMSFLQHNKCECRPKKD | 0.5 | relative binding affinity (ratio to native VEGF (8-109)) [2]: 300 fold
LK-VRB-3s (ligand) APMAEGGGQNHHEVVKIEDVFKRSSCHPIETLVDIFQEYPDEIEYIFKPSCVPLMRCGGCCNDEGLECVPTEESNITMQIMRIKPHQGQHIGEMSFLQHNKCECRPKKD | 1 | relative binding affinity (ratio to native VEGF (8-109)) [2]: 400 fold; Phosphorylation-Inducing Activity (KIRA), ratio to native VEGF (8-109) [3]: 1 fold
LK-VRB-16s (ligand) APMAEGGGQNHHEVVKFMDVYRRSSCHPIETLVDIFQEYPDEIEYIFKPSCVPLMRCGGCCNSEMRECVPTEESNITMQIMRIKPHQGQHIGEMSFLQHNKCECRPKKD | 0.6 | 
LK-VRB-8s* (ligand, 'Y2IL' read as Y21L (codon CTC)) APMAEGGGQNHHEVVKFMDVLQRSYCHPIETLVDIFQEYPDEIEYIFKPSCVPLMRCGGCCNSEMRECVPTEESNITMQIMRIKPHQGQHIGEMSFLQHNKCECRPKKD | 0.5 | Endothelial Cell Proliferation Activity (HUVEC), ratio to native VEGF (8-109) [1]: 1 fold
LK-VRB-13s (ligand) APMAEGGGQNHHEVVKFEDVYQRSSCHPIETLVDIFQEYPDEIEYIFKPSCVPLMRCGGCCNSEMRECVPTEESNITMQIMRIKPHQGQHIGEMSFLQHNKCECRPKKD | 14 | 
LK-VRB-12s (ligand) APMAEGGGQNHHEVVKFEDVYRRSYCHPIETLVDIFQEYPDEIEYIFKPSCVPLMRCGGCCNSEMRECVPTEESNITMQIMRIKPHQGQHIGEMSFLQHNKCECRPKKD | 0.4 | 
LK-VRB-10s (ligand) APMAEGGGQNHHEVVKFMDVYQRSSCHPIETLVDIFQEYPDEIEYIFKPSCVPLMRCGGCCNSEMRECVPTEESNITMQIMRIKPHQGQHIGEMSFLQHNKCECRPKKD | 0.5 | 
Native VEGF (8-109) (ligand) GQNHHEVVKFMDVYQRSYCHPIETLVDIFQEYPDEIEYIFKPSCVPLMRCGGCCNDEGLECVPTEESNITMQIMRIKPHQGQHIGEMSFLQHNKCECRPKKD |  | IC50 (read off the curve) [8]: ~2 nM

The next lines start with results.

relative binding affinity (ratio to native VEGF (8-109)) [4] [fold] | Binder | also measured
23 | LK-VRB-26s (ligand) APMAEGGGQNHHEVVKFEDVLRRSSCHPIETLVDIFQEYPDEIEYIFKPSCVPLMRCGGCCNDEMRECVPTEESNITMQIMRIKPHQGQHIGEMSFLQHNKCECRPKKD | 
4 | LK-VRB-22s (ligand) APMAEGGGQNHHEVVKFEDVLRRSSCHPIETLVDIFQEYPDEIEYIFKPSCVPLMRCGGCCNDEMLECVPTEESNITMQIMRIKPHQGQHIGEMSFLQHNKCECRPKKD | 
3 | LK-VRB-17s (ligand) APMAEGGGQNHHEVVKFEDVLRRSYCHPIETLVDIFQEYPDEIEYIFKPSCVPLMRCGGCCNSEMRECVPTEESNITMQIMRIKPHQGQHIGEMSFLQHNKCECRPKKD | 
11 | LK-VRB-23s (ligand) APMAEGGGQNHHEVVKFEDVLRRSSCHPIETLVDIFQEYPDEIEYIFKPSCVPLMRCGGCCNDEGRECVPTEESNITMQIMRIKPHQGQHIGEMSFLQHNKCECRPKKD | 
2 | LK-VRB-20s (ligand) APMAEGGGQNHHEVVKFMDVLRRSSCHPIETLVDIFQEYPDEIEYIFKPSCVPLMRCGGCCNSEMRECVPTEESNITMQIMRIKPHQGQHIGEMSFLQHNKCECRPKKD | 
3 | LK-VRB-21s (ligand) APMAEGGGQNHHEVVKFEDVLRRSSCHPIETLVDIFQEYPDEIEYIFKPSCVPLMRCGGCCNSEGLECVPTEESNITMQIMRIKPHQGQHIGEMSFLQHNKCECRPKKD | 
4 | LK-VRB-25s (ligand) APMAEGGGQNHHEVVKFEDVLRRSSCHPIETLVDIFQEYPDEIEYIFKPSCVPLMRCGGCCNSEGRECVPTEESNITMQIMRIKPHQGQHIGEMSFLQHNKCECRPKKD | 
10 | LK-VRB-24s (ligand) APMAEGGGQNHHEVVKFEDVLRRSSCHPIETLVDIFQEYPDEIEYIFKPSCVPLMRCGGCCNSEMLECVPTEESNITMQIMRIKPHQGQHIGEMSFLQHNKCECRPKKD | 
